Data set [1] relates to ZFN7264 (host, center linker TGSQKP) (synthetic). Description: cell_activity. Conditions: yeast, partner ZFN7263; host on 0-bp gap = 1.00; host data same as Table 9.
Data set [2] deals with ZFN7264 linker 1e (artificial). Description: cell_activity. Conditions: yeast, paired with 7263 ZFN.
The test system of data set [3] is ZFN7264 linker TGGGGSQKP (artificial). As to the kind of experiment: cell_activity. The settings on record: yeast, paired with 7263 ZFN.
Data set [4] has as its system ZFN7264 linker TGLPKPKP (artificial). As to the kind of experiment: cell_activity. The settings on record: yeast, paired with 7263 ZFN.
Data set [5] concerns ZFN7264 linker TSRPRPKP (artificial). Description: cell_activity. The settings on record: yeast, paired with 7263 ZFN.
In data set [6] the test system is ZFN7263 (host) (artificial). As to the kind of experiment: cell_activity.
Data set [7] deals with ZFN7263 linker TGGGGSQKP (artificial). As to the kind of experiment: cell_activity. Conditions: yeast, paired with 7264 ZFN.
Data set [8] concerns ZFN7263 linker TPLCQRPMKQKP (artificial). As to the kind of experiment: cell_activity. The settings on record: yeast, paired with 7264 ZFN.
The subject of data set [9] is ZFN7263 linker TPNRCPPTKP (artificial). Description: cell_activity. Conditions: yeast, paired with 7264 ZFN.
For data set [10], the system named is ZFN7263 linker TPRPPIPKP (artificial). As to the kind of experiment: cell_activity. The settings on record: yeast, paired with 7264 ZFN.
The test system of data set [11] is ZFN7263 linker TQRPQIPPKP (artificial). Description: cell_activity. Conditions: yeast, paired with 7264 ZFN.
The subject of data set [12] is ZFN7263 linker TYPRPLLAKP (artificial). Description: cell_activity. The settings on record: yeast, paired with 7264 ZFN.
Data set [13] deals with ZFN7263 linker TGGGGSQKP center linker F2-F3 TGSQKP replaced by TGGGGSQKP (artificial). Description: cell_activity. Conditions: normalized yeast MEL-1 score.
Data set [14] has as its system ZFN7263 linker TPRPPIPKP center linker F2-F3 TGSQKP replaced by TPRPPIPKP (artificial). As to the kind of experiment: cell_activity. Conditions: normalized yeast MEL-1 score.
The subject of data set [15] is ZFP8196 (host, center linker TGEKP) (artificial). Description: ELONA. The settings on record: normalized ELISA score. Background: In an ELISA, binding on a coated surface is turned into a signal by an enzyme label.
The test system of data set [16] is ZFP8196 linker 1c center linker F2-F3 TGEKP replaced by THPRAPIPKP (artificial). Description: ELONA. Conditions: normalized ELISA score.
Data set [17] deals with ZFP8196 linker 1d center linker F2-F3 TGEKP replaced by TPNRRPAPKP (artificial). Description: ELONA. The settings on record: normalized ELISA score.
In data set [18] the test system is ZFP8196 linker 1f center linker F2-F3 TGEKP replaced by TYPRPIAAKP (artificial). As to the kind of experiment: ELONA. The settings on record: normalized ELISA score.
For data set [19], the system named is ZFP8196 linker LRQKDERP (artificial).
The test system of data set [20] is ZFP8196 linker TCPRPPTRKP (artificial).
The subject of data set [21] is ZFP8196 linker TEPRAKPPKP (artificial).
Data set [22] concerns ZFP8196 linker TGEGGKP (artificial).
The test system of data set [23] is ZFP8196 linker TGGGGSQKP (artificial).
Data set [24] relates to ZFP8196 linker TGYSIPRPKP (artificial).
The subject of data set [25] is ZFP8196 linker TPDAPKPKP (artificial).
Data set [26] concerns ZFP8196 linker TPDRPISTCKP (artificial).
For data set [27], the system named is ZFP8196 linker TPGLHRPKP (artificial).
Data set [28] has as its system ZFP8196 linker TPSHTPRPKP (artificial).
The subject of data set [29] is ZFP8196 linker TSPRLPAPKP (artificial).
The subject of data set [30] is ZFP8196 linker TSSPRSNAKP (artificial).
Data set [31] relates to ZFP8196 linker TVSPAPCRSKP (artificial).
Data set [32] relates to ZFP7263 (host, center linker TGSQKP) (artificial). As to the kind of experiment: ELONA.
Data set [33] has as its system ZFP7263 linker TQRPQIPPKP center linker F2-F3 TGSQKP replaced by TQRPQIPPKP (artificial). Description: ELONA. Conditions: normalized ELISA score.
Data set [34] deals with ZFP7263 linker TYPRPLLAKP center linker F2-F3 TGSQKP replaced by TYPRPLLAKP (artificial). Description: ELONA. The settings on record: normalized ELISA score.
The test system of data set [35] is ZFP7263 linker LRQKDERP (artificial).
The test system of data set [36] is ZFP7263 linker TGEGGKP (artificial).
The subject of data set [37] is ZFP7263 linker TGGGGSQKP (artificial).
In data set [38] the test system is ZFP7263 linker TPLCQRPMKQKP (artificial).
The test system of data set [39] is ZFP7263 linker TPNRCPPTKP (artificial).
In data set [40] the test system is ZFP7263 linker TPRPPIPKP (artificial).
In data set [41] the test system is ZFP7263 linker LRQKDERP center linker F2-F3 TGSQKP replaced by LRQKDERP (artificial). Description: ELONA. Conditions: normalized ELISA score.
Data set [42] deals with ZFP7263 linker TGEGGKP center linker F2-F3 TGSQKP replaced by TGEGGKP (artificial). As to the kind of experiment: ELONA. The settings on record: normalized ELISA score.
Data set [43] concerns ZFP7263 linker TGGGGSQKP center linker F2-F3 TGSQKP replaced by TGGGGSQKP (artificial). As to the kind of experiment: ELONA. The settings on record: normalized ELISA score.
The test system of data set [44] is ZFP7263 linker TPLCQRPMKQKP center linker F2-F3 TGSQKP replaced by TPLCQRPMKQKP (artificial). As to the kind of experiment: ELONA. The settings on record: normalized ELISA score.
The test system of data set [45] is ZFP7263 linker TPNRCPPTKP center linker F2-F3 TGSQKP replaced by TPNRCPPTKP (artificial). As to the kind of experiment: ELONA. The settings on record: normalized ELISA score.
Data set [46] concerns ZFP7263 linker TPRPPIPKP center linker F2-F3 TGSQKP replaced by TPRPPIPKP (artificial). As to the kind of experiment: ELONA. Conditions: normalized ELISA score.
In data set [47] the test system is ZFP7264 (host, center linker TGSQKP) (artificial). Description: ELONA. The settings on record: normalized ELISA score.
The test system of data set [48] is ZFP7264 linker 1e center linker F2-F3 TGSQKP replaced by TVPRPTPPKP (artificial). Description: ELONA. Conditions: normalized ELISA score.
Data set [49] relates to ZFP7264 linker LRQKDERP (artificial).
The test system of data set [50] is ZFP7264 linker TGEGGKP (artificial).
Data set [51] concerns ZFP7264 linker TGGGGSQKP (artificial).
Data set [52] concerns ZFP7264 linker TGLPKPKP (artificial).
In data set [53] the test system is ZFP7264 linker TKHGTPKHREDKP (artificial).
The test system of data set [54] is ZFP7264 linker TLPLPRPKP (artificial).
Data set [55] relates to ZFP7264 linker TLPPCFRPKP (artificial).
Data set [56] has as its system ZFP7264 linker TSRPRPKP (artificial).

Turning to “AAAGCGAGCTCCG (double strand) [7264 yeast half-site gap A]”, the activity (normalized MEL-1) in data set [1] stood at 0.05; in data set [2], 1.24; in data set [3] it was 0.08; in data set [4], 0.08; in data set [5], 0.18.

On to “AAAGCGCGCTCCG (double strand) [7264 yeast half-site gap C]”, for which the activity (normalized MEL-1) is 0.05 in data set [1]; 0.14 in data set [2]; 0.07 in data set [3]; 0.07 in data set [4]; 0.08 in [5].

Turning to “AAAGCGGGCTCCG (double strand) [7264 yeast half-site gap G]”, the activity (normalized MEL-1) in data set [1] amounted to 0.09; in data set [2] it was 1.4; in data set [3] it was 0.14; in data set [4] it was 0.42; in [5], 0.61.

As to “AAAGCGTTGCTCCG (double strand) [7264 yeast half-site gap TT]”, the activity (normalized MEL-1) was 0.09 in data set [1]; 0.12 in data set [2]; 0.12 in data set [3]; 0.11 in data set [4]; 0.03 in [5].

On to “ACTCTGGTGGAAG (double strand) [7263 yeast half-site gap G]”, for which the activity (normalized MEL-1) in data set [6] (yeast, paired with 7264 ZFN) turned out to be 0.09; in data set [7] it was 0.6; in data set [8] it was 1.52; in data set [9] it was 2.85; in data set [10], 2.18; in data set [11], 2.18. The same sequence returned an activity (normalized MEL-1) in data set [12] of 2.21.

In the case of “ACTCTGTGGAAG (double strand) [7263 yeast half-site 0-bp gap]”, the activity in data set [6] (yeast MEL-1 score, with invariant 7264 ZFN partner (reference)) was 1; in data set [13] it was 0.11; in data set [14] it was 0.04. Moreover, the activity (normalized MEL-1) in data set [8] stood at 0.04; in data set [9] it was 0.05; in [11], 0.04; in data set [12], 0.05.

“ACTCTGTTGGAAG (double strand) [7263 yeast half-site gap T]”: the activity in [6] (normalized yeast MEL-1 score) was found to be 0.06; in data set [13], 0.31; in [14], 1.4. Moreover, the activity (normalized MEL-1) was 1.19 in data set [8], 1.59 in data set [9], 1.19 in data set [11] and 1.06 in data set [12].

Take “TTAGATAAACTGTCCAAAAGGCTATC (double strand) [8196 target gap TC]”: the binding signal in data set [15] came to 0; in data set [16], 0.01; in [17] it was 0.01; in [18] it was 0.01. Further, the binding signal (normalized ELISA) was 0 in [19]; 0.01 in data set [20]; 0.02 in data set [21]; 0 in data set [22]; 0 in data set [23]; 0.01 in data set [24]. Further, the binding signal (normalized ELISA) in data set [25] turned out to be 0.01; in [26] it was 0.03; in data set [27], 0.01; in data set [28], 0.02; in data set [29], 0.01; in data set [30], 0.01. Also, the binding signal (normalized ELISA) in data set [31] amounted to 0.02.

On to “TTAGCCACTCTGACTGGAAGTGTATC (double strand) [7263 target gap AC]”, for which the binding signal worked out at 0.01 in data set [32] (normalized ELISA score), 0.03 in [33] and 0.03 in [34]. Moreover, the binding signal (normalized ELISA) worked out at 0.01 in data set [35]; 0.01 in data set [36]; 0.01 in data set [37]; 0.08 in data set [38]; 0.03 in [39]; 0.02 in data set [40].

Take “TTAGCCACTCTGTGGAAGTGTATC (double strand) [7263 target 0-bp gap]”: the binding signal amounted to 1 in data set [32] (ELISA normalized to host on 0-bp gap target (reference)); 0.25 in data set [41]; 1.3 in [42]; 0.51 in data set [43]; 0.28 in [44]; 0.31 in [45]. Besides, the binding signal in data set [46] amounted to 0.14; in data set [33] it was 0.15; in [34], 0.29.

With “TTAGCCACTCTGTTGGAAGTGTATC (double strand) [7263 target gap T]”, the binding signal in data set [32] (normalized ELISA score) stood at 0.02; in [41], 0.13; in data set [42] it was 0.04; in [43], 0.39; in data set [44] it was 4; in data set [45] it was 3.16. The results for the binding signal in data set [46], in [33] and in [34] were 2.09, 3.05 and 3.97, respectively.

Regarding “TTAGTTAAAGCGTTGCTCCGAATATC (double strand) [7264 target gap TT]”, the binding signal came to 0 in data set [47] and 0.05 in data set [48]. The binding signal (normalized ELISA) in [49] was found to be 0.02; in data set [50], 0.03; in data set [51], 0.03; in [52] it was 0.03; in [53], 0; in data set [54], 0.04. Further, the results for the binding signal (normalized ELISA) in [55] and in [56] were 0.06 and 0.03, respectively.

The values are drawn from patent publication US20110287512.
